Holding throughout (assay): enzyme inhibition kinetics
In test [1] the target is T1, ADAMTS4-2 (human ADAMTS-4 deletion mutant, C-terminal FLAG-tag) (human, UniProt O75173 213-685).
T1 sequence (looked up): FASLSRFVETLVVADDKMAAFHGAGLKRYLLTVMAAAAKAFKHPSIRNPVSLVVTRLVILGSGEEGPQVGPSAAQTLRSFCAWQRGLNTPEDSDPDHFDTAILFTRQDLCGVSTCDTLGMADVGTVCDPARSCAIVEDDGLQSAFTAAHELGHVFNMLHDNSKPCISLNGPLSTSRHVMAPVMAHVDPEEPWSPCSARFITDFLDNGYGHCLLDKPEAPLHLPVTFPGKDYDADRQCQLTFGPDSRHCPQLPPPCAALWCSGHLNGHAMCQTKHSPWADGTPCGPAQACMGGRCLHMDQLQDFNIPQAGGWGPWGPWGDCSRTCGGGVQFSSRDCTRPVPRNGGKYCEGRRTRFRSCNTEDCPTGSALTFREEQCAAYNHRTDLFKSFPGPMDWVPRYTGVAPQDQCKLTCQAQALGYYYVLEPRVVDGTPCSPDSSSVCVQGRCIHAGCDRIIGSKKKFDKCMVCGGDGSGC

Test [2] addresses T2, ADAMTS5-2 (human ADAMTS-5 deletion mutant, C-terminal FLAG-tag) (human, UniProt Q9UNA0 262-874).
T2 sequence (looked up): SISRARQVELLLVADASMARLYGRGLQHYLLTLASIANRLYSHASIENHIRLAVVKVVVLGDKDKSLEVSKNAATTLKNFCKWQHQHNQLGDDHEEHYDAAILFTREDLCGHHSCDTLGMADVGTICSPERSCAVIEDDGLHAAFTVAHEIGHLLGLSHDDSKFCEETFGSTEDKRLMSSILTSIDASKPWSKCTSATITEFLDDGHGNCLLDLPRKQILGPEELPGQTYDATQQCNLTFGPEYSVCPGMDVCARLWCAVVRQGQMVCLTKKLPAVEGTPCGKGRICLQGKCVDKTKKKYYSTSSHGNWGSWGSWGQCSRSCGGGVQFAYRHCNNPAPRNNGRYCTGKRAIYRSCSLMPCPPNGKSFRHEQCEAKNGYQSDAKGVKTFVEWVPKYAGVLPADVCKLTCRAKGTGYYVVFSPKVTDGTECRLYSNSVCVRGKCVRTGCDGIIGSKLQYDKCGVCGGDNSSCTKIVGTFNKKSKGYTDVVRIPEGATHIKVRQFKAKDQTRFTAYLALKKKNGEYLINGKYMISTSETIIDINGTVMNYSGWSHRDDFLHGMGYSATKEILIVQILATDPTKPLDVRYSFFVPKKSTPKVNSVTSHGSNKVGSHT

For test [3], the target named is T3, Catalytic domain of human MMP-1 (MMP-1cat) (human, UniProt P03956 100-269).
T3 sequence (looked up): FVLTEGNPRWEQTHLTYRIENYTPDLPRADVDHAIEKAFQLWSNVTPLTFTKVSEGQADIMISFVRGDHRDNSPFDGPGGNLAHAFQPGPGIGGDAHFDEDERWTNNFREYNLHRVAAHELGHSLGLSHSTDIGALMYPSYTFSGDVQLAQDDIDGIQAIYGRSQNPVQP

The target of test [4] is Catalytic domain of human MMP-3 (MMP-3cat) (human, UniProt P08254 100-272).
Chain of Catalytic domain of human MMP-3 (MMP-3cat) (P08254 100-272): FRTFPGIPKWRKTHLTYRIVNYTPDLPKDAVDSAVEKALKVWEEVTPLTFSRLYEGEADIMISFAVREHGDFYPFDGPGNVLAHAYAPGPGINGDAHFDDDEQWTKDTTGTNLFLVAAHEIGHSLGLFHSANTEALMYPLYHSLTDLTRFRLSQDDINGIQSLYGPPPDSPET

B1: N-terminal domain of human TIMP-3 with C-terminal His-tag, expressed in Escherichia coli and folded in vitro (domain or fragment, UniProt P35625 24-144, looked up)
chain: CTCSPSHPQDAFCNSDIVIRAKVVGKKLVKEGPFGTLVYTIKQMKMYRGFTKMPHVQYIHTEASESLCGLKLEVNKYQYLLTGRVYDGKMYTGLCNFVERWDQLTLSQRKGLNYRYHLGCN
Turning to B1, the Ki stood at 790 pM in test [1], 320 pM in test [2], 800 pM in test [3] and 11100 pM in test [4].

B2: Non-glycosylated full-length human TIMP-3, FLAG-tagged, from HEK293 cells treated with tunicamycin (natural protein, UniProt P35625 24-211, looked up)
chain: CTCSPSHPQDAFCNSDIVIRAKVVGKKLVKEGPFGTLVYTIKQMKMYRGFTKMPHVQYIHTEASESLCGLKLEVNKYQYLLTGRVYDGKMYTGLCNFVERWDQLTLSQRKGLNYRYHLGCNCKIKSCYYLPCFVTSKNECLWTDMLSNFGYPGYQSKHYACIRQKGGYCSWYRGWAPPDKSIINATDP
Regarding B2, the figures for the Ki in test [1] and in test [2] were 200 pM and 1370 pM, respectively.

(Values after publication PMC2835468 (Matrix biology : journal of the International Society for …, 2009).)
